The text below walks through data of patent publication US20060193821, “Aptamers to the human IL-12 cytokine family and their use as autoimmune disease therapeutics” (published 2006).

The target in series [1] is IL-12 (human, p35/p40 heterodimer) (Homo sapiens, UniProt P29459;P29460 SEQ:57-253,SEQ:23-328). Description: filter; tRNA. The procedure: (§1) Monitoring Progress of rRfY Selection. Dot blot binding assays were performed throughout the selections to monitor the protein binding affinity of the pools. Trace ³²P-labeled RNA was combined with a dilution series of h-IL-23 and incubated at room temperature for 30 minutes in 1×SHMCK (20 mM Hepes, 120 mM NaCl, 5 mM KCl, 1 mM MgCl₂, 1 mM CaCl₂, pH 7.4) plus 0.1 mg/mL tRNA for a final volume of 20 μL. The binding reactions were analyzed by nitrocellulose filtration using a Minifold I dot-blot, 96-well vacuum filtration manifold (Schleicher & Schuell, Keene, N.H.). A three-layer filtration medium was used, consisting (from top to bottom) of Protran nitrocellulose (Schleicher & Schuell), Hybond-P nylon (Amersham Biosciences) and GB002 gel blot paper (Schleicher & Schuell). RNA that is bound to protein is captured on the nitrocellulose filter, whereas the non-protein bound RNA is captured on the nylon filter. The gel blot paper was included simply as a supporting medium for the other filters. Following filtration, the filter layers were separated, dried and exposed on a phosphor screen (Amersham Biosciences, Piscataway, N.J.) and quantified using a Storm 860 Phosphorimager® blot imaging system (Amersham Biosciences).
Chain of IL-12 (human, p35/p40 heterodimer) (P29459 23-219, chain 1 of 2): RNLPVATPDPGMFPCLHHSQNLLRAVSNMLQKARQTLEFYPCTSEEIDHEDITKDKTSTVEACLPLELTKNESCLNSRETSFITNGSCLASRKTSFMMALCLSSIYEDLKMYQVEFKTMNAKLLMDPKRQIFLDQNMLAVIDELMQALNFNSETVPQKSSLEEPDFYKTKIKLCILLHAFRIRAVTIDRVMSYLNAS
Chain of IL-12 (human, p35/p40 heterodimer) (P29460 23-328, chain 2 of 2): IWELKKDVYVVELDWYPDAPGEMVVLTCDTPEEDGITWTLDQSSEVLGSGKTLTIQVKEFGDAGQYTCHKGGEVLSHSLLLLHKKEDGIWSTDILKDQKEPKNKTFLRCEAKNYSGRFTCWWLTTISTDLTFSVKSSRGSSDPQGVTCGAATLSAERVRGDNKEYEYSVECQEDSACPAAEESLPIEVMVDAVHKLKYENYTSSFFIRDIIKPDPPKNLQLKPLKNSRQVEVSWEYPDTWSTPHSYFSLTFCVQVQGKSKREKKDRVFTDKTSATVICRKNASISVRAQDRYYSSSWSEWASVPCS
(§2) When a significant positive ratio of binding of RNA in the presence of h-IL-23 versus in the absence of h-IL-23 was seen, the pools were cloned using a TOPO TA cloning kit (Invitrogen, Carlsbad, Calif.) according to the manufacturer's instructions. For the h-IL-23 and X-IL-23 selections, the Round 8 pool templates were cloned, and 32 individual clones from each selections were assayed in a 1-point dot blot screen (+/−75 nM h-IL-23, as well as a separate screen at +/−75 nM h-IL-12). For the PN-IL-23 selection, the Round 10 pool was cloned and sequenced, and 8 unique clones were assayed for protein binding in a 1-point dot blot screen (+/−200 nM h-IL-23 and a separate screen at +/−200 nM h-IL-12). Subsequently, the Round 10 PN-IL-23 pool was re-cloned for further sequences, as well as the R12 PN-IL-23 pool, and the clones were assayed for protein binding in a 1 point do blot screen (+/−100 nM h-IL-23 or +/−200 nM h-IL-12).

Series [2] addresses T1, IL-23 (human, p19/p40 heterodimer) (Homo sapiens, UniProt Q9NPF7;P29460 SEQ:20-189,SEQ:23-328). The experiment in a line: filter; SHMCK, tRNA. Conditions: tags: R&D Systems, carrier free. The procedure: as §1, §2
Series [3] addresses T1, IL-23 (human, p19/p40 heterodimer). Description: filter; DPBS Ca Mg. The settings on record: tags: R&D Systems, carrier free. The procedure: The selection progress was monitored using the dot blot sandwich filter binding assay as described in Example 1A. The 5′-³²P-labeled pool RNA was refolded at 90° C. for 3 minutes and cooled to room temperature for 10 minutes. Next, pool RNA (trace concentration) was incubated with h-IL-23 DPBS plus 0.1 mg/mL tRNA for 30 minutes at room temperature and then applied to a nitrocellulose and nylon filter sandwich in a dot blot apparatus (Schleicher and Schuell). The percentage of pool RNA bound to the nitrocellulose was calculated and monitored approximately every 3 rounds with a single point screen (+/−250 nM h-IL-23). Pool KD measurements were measured using a titration of h-IL-23 protein (R&D, Minneapolis, Minn.) and the dot blot apparatus as described above.
The rRmY h-IL-23 selection was enriched for h-IL-23 binding vs. the naïve pool after 4 rounds of selection (data not shown). The selection stringency was increased and the selection was continued for 8 more rounds. […] The rGmH selection was enriched over the naïve pool binding at Round 10. […] FIG. 7 is a binding curve of rRmY and rGmH pool selection binding to h-IL-23. The pools were cloned using TOPO TA cloning kit (Invitrogen, Carlsbad, Calif.) and individual sequences were generated and tested for binding. A single point binding screen was initially performed on all crude rRmY clone transcriptions using a 1:200 dilution, +/−200 nM IL-23, plus 0.1 mg/mL competitor tRNA. […] The 10 point screen was performed using zero to 480 nM IL-23 in 3 fold serial dilutions. Binding curves were generated (KaleidaGraph v. 3.51, Synergy Software) and KDs were estimated by fitting the data to the equation: fraction RNA bound=amplitude[h-IL-23]/KD+[h-IL-23]). […] There was one group of 6 duplicate sequences and 4 pairs of 2 duplicate sequences out of the rRmY clones generated. […] Clones were also tested from 48 crude rGmH clone transcriptions at a 1:200 dilution and 0.1 mg/mL tRNA was used as competitor.

Series [4] has the same target. Description: filter; dot blot; DPBS with Ca and Mg, 0.1 mg/mL BSA, 30 min RT. The settings on record: tags: R&D Systems, carrier free; label: 5'-32P. The procedure:
The dot blot binding assay previously described was used to characterize the relative potency of the majority of the aptamers synthesized. For KD determination, chemically synthesized aptamers were purified using denaturing polyacrylamide gel electrophoresis, 5′end labeled with γ-³²P ATP and were tested for direct binding to full human IL-23. An 8 point protein titration was used in the dot blot binding assay (either {100 nM, 30 nM, 10 nM, 3 nM, 1 nM, 300 pM, 100 pM, 0 pM} or {10 nM, 3 nM, 1 nM, 300 pM, 100 pM, 30 pM, 10 pM, 0 pM}) in Dulbecco's PBS (with Mg⁺⁺ and Ca⁺⁺) with 0.1 mg/mL BSA. KD values were calculated by fitting the equation y=(max/(1+K/protein))+yint using KaleidaGraph (KaleidaGraph v. 3.51, Synergy Software). Sequences of the ARC979 derivatives synthesized, purified and assayed for binding to IL-23 as well as the results of the protein binding characterization are tabulated below in Tables 29 and 30.

The target is the same in series [5]. Description: cell_activity; TransAM STAT3. Conditions: tags: R&D Systems, carrier free. The procedure:
In summary, the cell-based assay was conducted by isolating the peripheral blood mononuclear cells (PBMCs) from whole blood using a Histopaque gradient (Sigma, St. Louis, Mo.). The PBMCs were cultured for 3 to 5 days at 37° C./5% CO₂ in Peripheral Blood Medium (Sigma) which contains PHA, supplemented with IL-2 (100 units/mL) (R&D Systems, Minneapolis, Minn.), to generate PHA Blasts. To test IL-23 aptamers, the PHA Blasts were washed twice with 1×PBS, then serum starved for four hours in RPMI, 0.20% FBS. After serum starvation, approximately 2 million cells were aliquotted into appropriately labeled eppendorf tubes. hIL-23 at a final constant concentration of 3 ng/mL (R&D Systems, Minneapolis, Minn.) was combined with a dilution series of various IL-23 aptamers as described in Example 1, and the cytokine/aptamer mixture was added to the aliquotted cells in a final volume of 100 μl and incubated at 37° C. for 10-12 minutes. The incubation reaction was stopped by adding 1 mL of ice-cold PBS with 1.5 mM Na₃VO₄. Cell lysates were made using the lysis buffer provided by the TransAM™ STAT 3 assay following the manufacturer's instructions. FIG. 20 depicts a flow summary of the protocol used for the cell based assay.
Full length clones from the rRfY selection described in Example 1A, and select minimized rRfY clones that were described in Example 2A. 1, were tested using the TransAM™ STAT3 activation assay. Table 34 summarizes the cell based assay data for IL-23 full length aptamers generated from the rRfY selections described in Example 1A. 1, each compared to the activity of their respective parent (full length) clone.

The term Kd denotes the constant that tells how readily two partners part at equilibrium. One may read the IC50 as the midpoint of a concentration-inhibition curve. A high value points to lower potency.

T1 sequence (Q9NPF7 20-189, chain 1 of 2): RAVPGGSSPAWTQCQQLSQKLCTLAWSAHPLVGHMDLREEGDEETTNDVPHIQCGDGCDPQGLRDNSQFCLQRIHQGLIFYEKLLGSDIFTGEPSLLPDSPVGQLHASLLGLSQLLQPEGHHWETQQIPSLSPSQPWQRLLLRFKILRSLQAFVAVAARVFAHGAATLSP
T1 sequence (P29460 23-328, chain 2 of 2): as the sequence (P29460 23-328, chain 2 of 2) above

B1: AMX86-B7 (ssRNA)
RNA: GGGAAAAGCGAAUCAUACACAAGAAUGAAUUCCGUCCACGGGCGCCCGAUGAUGUCAGUUUUCGGCUCCGCCAGAGACCAACCGAGAA
modifications: 2'-F C,U
For the molecule B1, the Kd in series [1] turned out to be 934 nM; in series [2] it was 111 nM.

B2: AMX86-B10 (ssRNA)
RNA: GGGAAAAGCGAAUCAUACACAAGAGAACGAGUAUAUUUGCGCUGGCGGAGAAGUCUCUCGAAGGGAGCUCCGCCAGAGACCAACCGAGAA
modifications: 2'-F C,U
In the case of B2, the figures for the Kd in series [1] and in series [2] were 1040 nM and 77.8 nM, respectively.

B3: rRmY clone SEQ 79 (ssRNA)
RNA: GGGAGAGGAGAGAACGUUCUACAAAAGGCAGGCUCAGGGGAUCACUGGAAGUCGCUGUCGAUCGAUCGAUCGAUG
modifications: 2'-OMe C,U
On to B3, for which the Kd in series [3] was 807 nM.

B4: AMX86-C5 (ssRNA)
RNA: GGGAAAAGCGAAUCAUACACAAGAGUUUUAUGUGGGUCCCGAUGAUUAACUUUAUUGGCGCAUUGCUCCGCCAGAGACCAACCGAGAA
modifications: 2'-F C,U
With B4, the values for the Kd in series [1] and in series [2] were 400 nM and 80.3 nM, respectively.

B5: ARC1626 (mixed)
RNA: ACAGGCAAGUAAUUGGGGAGUGCGGGCGGGGUGU
modifications: ARC1544 sugars; PS at 17 linkages 5' of deoxy residues as printed in Table 29; 3'-idT [PS at 2-3, 3-4, 4-5, 6-7, 7-8, 8-9, 10-11, 11-12, 14-15, 17-18, 18-19, 19-20, 21-22, 25-26, 27-28, 28-29, 32-33; ARC1544 sugars (2'-deoxy/2'-OMe); 3'-inverted dT at 35]
Regarding B5, the Kd in series [4] amounted to 0.1 nM.

B6: ARC1624 (mixed)
RNA: ACAGGCAAGUAAUUGGGGAGUGCGGGCGGGGUGU
modifications: dAmCdAdGdGmCdAdAdGmUdAdAmUmUdGmGmGdGdAdGmUdGmCmGmG-s-dGmC-s-dG-s-dGmGmGmUdGmU-3T (d deoxy, m 2'-OMe, s PS, 3T idT) [PS at 25-26, 27-28, 28-29; 2'-OMe at 2,6,10,13,14,16,17,21,23,24,25,27,30,31,32,34; 2'-deoxy at other nt 1-33; 3'-inverted dT at 35]
For the molecule B6, in series [4], the Kd was 0.4 nM.

B7: ARC1431 (mixed)
RNA: ACAGGCAAGUAAUUGGGGAGUGCGGGCGGGGUGU
modifications: dRmY; 2'-OMe A7; 3'-idT
For the molecule B7, the Kd in series [4] came to 10 nM.

B8: ARC1623 (mixed)
RNA: ACAGGCAAGUAAUUGGGGAGUGCGGGCGGGGUGU
modifications: dAmCdAdGdGmCdAdAdGmUdAdAmUmUdGmGmG-s-dG-s-dA-s-dGmU-s-dGmCmGmGdGmCdGdGmGmGmUdGmU-3T (d deoxy, m 2'-OMe, s PS, 3T idT) [PS at 17-18, 18-19, 19-20, 21-22; 2'-OMe at 2,6,10,13,14,16,17,21,23,24,25,27,30,31,32,34; 2'-deoxy at other nt 1-33; 3'-inverted dT at 35]
For B8, the Kd in series [4] amounted to 0.2 nM.

B9: AMX86-H9 (ssRNA)
RNA: GGGAAAAGCGAAUCAUACACAAGAUGGUUCCCACGUGAAAGUGGCUAGCGAGUACCCCACUUAUGCUCCGCCAGAGACCAACCAAGGG
modifications: 2'-F C,U
B9: the Kd in series [1] was 332 nM; in series [2], 105 nM. In addition, in series [5], half-maximal inhibition (IC50) required 250 nM.

B10: AMX86-E10 (ssRNA)
RNA: GGGAAAAGCGAAUCAUACACAAGAUUGUCUCGGAUUGGUCACUCCCAUUUUUGUUCGCUUAACGGCUCCGCCAGAGACCAACCGAGAA
modifications: 2'-F C,U
In the case of B10, the Kd was found to be 905 nM in series [1] and 218 nM in series [2].

B11: AMX86-F11 (ssRNA)
RNA: GGGAAAAGCGAAUCAUACACAAGACCAUCGGACGAGGCGGGUCACCUUUUACGCUUUCGAGCUGGCUCCGCCAGAGACCAACCGAGAA
modifications: 2'-F C,U
Consider B11, for which the equilibrium dissociation constant (Kd) was found to be 541 nM in series [1] and 256 nM in series [2].

B12: AMX91-H8 (ssRNA)
RNA: GGGAAAAGCGAAUCAUACACAAGAACGCAUAGUCGGAUUUACCGAUCAUUCUGUGCCUUCGUGACGCUCCGCCAGAGACCAACCGAGAA
modifications: 2'-F C,U
For B12, the Kd was found to be 243 nM in series [1] and 16.6 nM in series [2].

B13: AMX86-C9 (ssRNA)
RNA: GGGAAAAGCGAAUCAUACACAAGACUCAUGGAUAUGGCCUAGCAGCCGUGGAAGCGGUCAUUCUGCUCCGCCAGAGACCAACCGAGAA
modifications: 2'-F C,U
For the molecule B13, the Kd worked out at 673 nM in series [1] and 97.9 nM in series [2].

B14: AMX86-A7 (ssRNA)
RNA: GGGAAAAGCGAAUCAUACACAAGAUCUCUUUGGCCGACGCAACAAUGCUCUUUUCCGACCUUGCGCUCCGCCAGAGACCAACCGAGAA
modifications: 2'-F C,U
With B14, the figures for the Kd in series [1] and in series [2] were 668 nM and 57.7 nM, respectively.

B15: AMX86-F12 (ssRNA)
RNA: GGGAAAAGCGAAUCAUACACAAGAGUGUUGAAUGAGCGCUGGUGGACAGAUCUUUGGUUACAGAGCUCCGCCAGAGACCAACCGAGAA
modifications: 2'-F C,U
With B15, the Kd in series [1] stood at 2910 nM; in series [2], 424 nM.

B16: AMX86-A10 (ssRNA)
RNA: GGGAAAAGCGAAUCAUACACAAGAGUAAUGUGGGUCCCGAUGAUUCGCUGUGCGGCGUUUGUAGCUCCGCCAGAGACCAACCGAGAA
modifications: 2'-F C,U
Turning to B16, the Kd was found to be 289 nM in series [1] and 461 nM in series [2].

B17: AMX86-A11 (ssRNA)
RNA: GGGAAAAGCGAAUCAUACACAAGAACGGCUAGGCAUCAAUGGCCAGCAAAAAUAGUCGUGUAAUGCUCCGCCAGAGACCAACCGAGAA
modifications: 2'-F C,U
Regarding B17, the results for the equilibrium dissociation constant (Kd) in series [1] and in series [2] were 182 nM and 157 nM, respectively.

B18: AMX86-B11 (ssRNA)
RNA: GGGAAAAGCGAAUCAUACACAAGAGUAUCAUUCGGCUGGUGGGAGAAAUCUCUGUAGAUAUAGAGCUCCGCCAGAGACCAACCGAGAA
modifications: 2'-F C,U
B18: the Kd in series [1] worked out at 5950 nM; in series [2], 180 nM.
